According to paper PMC6016253, “The ICP27 Homology Domain of the Human Cytomegalovirus Protein UL69 Adopts a Dimer-of-Dimers Structure” (mBio, 2018):

B1: UL69short (HCMV UL69 residues 248 to 536) (domain or fragment)
chain: PSSTSPVYDLQRYTAESLRLAPYPADLKVPTAFPQDHQPRGRILLSHDELMHTDYLLHIRQQFDWLEEPLLRKLVVEKIFAVYNAPNLHTLLAIIDETLSYMKYHHLHGLPVNPHDPYLETVGGMRQLLFNKLNNLDLGCILDHQDGWGDHCSTLKRLVKKPGQMSAWLRDDVCDLQKRPPETFSQPMHRAMAYVCSFSRVAVSLRRRALQVTGTPQFFDQFDTNNAMGTYRCGAVSDLILGALQCHECQNEMCELRIQRALAPYRFMIAYCPFDEQSLLDLTVFAGTT
notes: UL69 of human cytomegalovirus (HCMV), 744 amino acids; residues 248 to 536: ICP27 homology domain only; gene synthesis, codon optimized; HRV3C protease-cleavable N-terminal thioredoxin tag plus Strep-tag; not shown: thioredoxin, N-terminal, cleaved
B2: UL69long (HCMV UL69 residues 200 to 540) (domain or fragment)
chain: GPQQQQMLALIDDELDAMDEDELQQLSRLIEKKKRARLQRGAASSGTSPSSTSPVYDLQRYTAESLRLAPYPADLKVPTAFPQDHQPRGRILLSHDELMHTDYLLHIRQQFDWLEEPLLRKLVVEKIFAVYNAPNLHTLLAIIDETLSYMKYHHLHGLPVNPHDPYLETVGGMRQLLFNKLNNLDLGCILDHQDGWGDHCSTLKRLVKKPGQMSAWLRDDVCDLQKRPPETFSQPMHRAMAYVCSFSRVAVSLRRRALQVTGTPQFFDQFDTNNAMGTYRCGAVSDLILGALQCHECQNEMCELRIQRALAPYRFMIAYCPFDEQSLLDLTVFAGTTTTTA
notes: UL69 of human cytomegalovirus (HCMV), 744 amino acids; residues 200 to 540: ICP27 homology domain plus an N-terminal region conserved only in betaherpesviruses; gene synthesis, codon optimized; HRV3C protease-cleavable N-terminal thioredoxin tag plus Strep-tag; also called UL69 tetramer; not shown: thioredoxin, N-terminal, cleaved

Target: the molecule itself
Assay: SEC-MALS; 0.5 ml at 1 mg/ml on Superdex 200 10/300 GL, 0.75 ml/min; 20 mM HEPES, 150 mM NaCl, 50 mM L-Arg, 50 mM L-Glu, 1 mM TCEP, pH 7.9

Protein | stoichiometry N
B1 | 2
B2 | 4
